The values below come from patent US20210079089A1 (SURROZEN OPERATING, published 2021).

The chains are these.
T1: LRP6e1e2 (UniProt O75581 20-630, limits assumed, C-terminally biotinylated)
T1 construct: domain: E1E2; also called LRP6 E1E2 domains
T1 sequence (looked up): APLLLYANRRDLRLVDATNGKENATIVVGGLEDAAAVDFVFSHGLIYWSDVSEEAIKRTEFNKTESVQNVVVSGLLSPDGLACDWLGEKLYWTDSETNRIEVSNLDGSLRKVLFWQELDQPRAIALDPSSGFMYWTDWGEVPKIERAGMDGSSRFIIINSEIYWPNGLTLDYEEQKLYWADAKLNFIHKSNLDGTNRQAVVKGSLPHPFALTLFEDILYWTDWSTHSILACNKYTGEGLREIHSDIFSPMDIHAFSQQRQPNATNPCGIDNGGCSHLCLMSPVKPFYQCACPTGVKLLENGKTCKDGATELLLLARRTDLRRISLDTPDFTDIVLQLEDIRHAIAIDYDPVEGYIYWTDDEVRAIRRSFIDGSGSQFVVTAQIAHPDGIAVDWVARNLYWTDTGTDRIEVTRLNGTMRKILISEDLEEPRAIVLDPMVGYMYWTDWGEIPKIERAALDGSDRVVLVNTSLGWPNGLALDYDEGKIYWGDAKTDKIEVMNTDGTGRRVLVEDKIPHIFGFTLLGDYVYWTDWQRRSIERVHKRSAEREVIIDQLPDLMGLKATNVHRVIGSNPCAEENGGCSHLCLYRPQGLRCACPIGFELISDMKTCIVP

T2: LRP6E3E4_O75581_631-1246 (Homo sapiens (Human), UniProt O75581 631-1246, biotinylated in the BLI/SPR assays (C-terminal biotin acceptor peptide))
T2 construct: The entry holds residues 631-1246 of UniProt O75581 followed by a biotin acceptor peptide and eight His
T2 sequence: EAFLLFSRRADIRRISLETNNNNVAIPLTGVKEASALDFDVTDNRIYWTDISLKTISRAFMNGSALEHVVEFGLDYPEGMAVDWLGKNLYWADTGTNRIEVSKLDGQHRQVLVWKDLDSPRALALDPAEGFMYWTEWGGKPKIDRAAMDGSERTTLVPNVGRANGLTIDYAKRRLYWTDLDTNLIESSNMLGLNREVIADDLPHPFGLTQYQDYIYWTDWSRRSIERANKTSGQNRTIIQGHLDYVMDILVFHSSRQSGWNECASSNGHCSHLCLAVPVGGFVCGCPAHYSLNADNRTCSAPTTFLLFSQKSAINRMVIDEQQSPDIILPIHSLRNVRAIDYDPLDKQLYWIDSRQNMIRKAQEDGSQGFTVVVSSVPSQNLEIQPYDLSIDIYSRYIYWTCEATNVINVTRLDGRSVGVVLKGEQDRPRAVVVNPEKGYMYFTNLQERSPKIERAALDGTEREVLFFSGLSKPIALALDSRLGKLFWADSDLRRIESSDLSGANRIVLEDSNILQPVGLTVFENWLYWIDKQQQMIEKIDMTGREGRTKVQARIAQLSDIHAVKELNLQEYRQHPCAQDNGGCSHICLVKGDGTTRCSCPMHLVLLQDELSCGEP

T3: LRP6E3E4_O75581_631-1246 (Homo sapiens (Human), UniProt O75581 631-1246)
T3 construct: also called LRP6E3E4 construct used for structural studies
T3 sequence: T2 sequence

B1: 013S-C05 (HC SEQ ID NO 17) (VHH)
VHH: EVQLVESGGGLVQPGGSLRLSCAVSRNIFPIDDMSWYRQAPGKQRELVATVTSGGRINYADSVKGRFTISRDGARRTIDLQMNNLKPEDTAVYYCNVDRTLYGKYKEYWGQGTLVTVSS
B2: 013S-D05 (HC SEQ ID NO 18) (VHH)
VHH: QVKLEESGGGLVQAGGSLRLSCAASGRIFSIYDMGWFRQAPGKEREFVSGIRWSGGTSYADSVKGRFTISKDNAKNTIYLQMNNLKAEDTAVYYCGSRGYWGQGTLVTVSS
B3: 009S-G04 (VHH)
VHH: EVQLVESGGGLVQAGGSLRVSCAASGGTFSRYHMGWFRQAPGKEREFVSAITWSGGRTYYADFVKGRFTISRDDARNTVYLQMSSLKPEDTAVYYCALTWAPTPTNRRSDYAYWGQGTQVTVSS
B4: 013S-G04 (HC SEQ ID NO 15) (VHH)
VHH: AVQLVESGGGLVQAGGSLRLACAGSGRIFAIYDIAWYRQAPGNQRELVATIRPVVSETTYADAVKGRFTISRSNAMKTVYLQMNSLKSEDTAIYYCNAKRPWGTRDEYWGQGTLVTVSS
B5: 009S-H04 (VHH)
VHH: B4 VHH with A1E, I34M
B6: 009S-B04 (VHH)
VHH: DVQLVESGGGLVQPGGSLRLSCAASGSIFMINTMAWYRQAPGNQRELVATIRPVVSETTYADAVKGRFTISRDNAKNTVYLQMNSLKSEDTAIYYCNAKRPWGTRDEYWGQGTLVTVSS
B7: 013S-H04 (HC SEQ ID NO 16) (VHH)
VHH: AVQLVDSGGGLVQAGGSLRLSCAVSGRTFSMYDMGWFRQAPGKEREFVASIRWSSGNTWYADSMKGRFTISRDNAKNTVYLQMNSLKPEDTAVYYCYANIYYTRRAPEEYWGQGTLVTVSS
B8: 009S-D03 (VHH)
VHH: DVQLVESGGGLVQPGGSLRLSCAAPGSIFSDGAMGWYRQAPGKQRELVAVISGGRTGYADFVKGRFTISRDNGKNTVNLQMNRLEPEDTAVYFCNTYPFPIYKKGYPFWGQGTQVTVSS
B9: 009S-A04 (VHH)
VHH: AVQLVESGGGLVQAGGSLRLSCAASGRTLSAYDMGWFRQAPGKERELVGGIRWSGGTTLYPDSVKGRFTISRDNAKNTVYLQMNSLKPEDSAVYYCYARTVIGGFGAFRAHWGQGTQVTVSS
B10: 009S-F03 (VHH)
VHH: DVQLVESGGGLVQAGGSLRLSCAASGRTFSSYAMSWFRQAPGKEREFVAVIGRSGGIKYYADSVKGRFTISRDNTINTVYLQMNNLTPEDTAIYYCATRRPFNSYNTEQSYDSWGRGTLVTVSS
B11: 009S-G02 (VHH)
VHH: AVQLVESGGGLVQAGGSLRLSCGVSGSIFSIYAMGWYRQAPGKERELVAVITSGGKTVYADSVKGRFTITEDAAKNTVYLQMNSLKAEDTAVYYCYADSRSSWYDEYLEHWGRGTLVTVSS
B12: VHH36 (013S-D05) (VHH)
VHH: B2 VHH
modifications: Gln1 modified as pyroglutamate
notes: construct of the crystal structure

Where a chain is given by its changes, count along the chain named.

One may read the Kd as the constant that tells how readily two partners part at equilibrium.

The first assay addresses T1, LRP6e1e2. Description: Octet BLI. Here is the method: (§1) Binding kinetics of antibody fragments to LRP5 extracellular domain (LRP5 ECD) and/or LRP6 extracellular domain (LRP6 ECD) protein targets was determined by bio-layer interferometry (BLI) using Octet Red 96 (PALL ForteBio, Fremont, Calif.) instruments at 30° C., 1000 rpm with streptavidin (SA) biosensors. C-terminal biotinylated LRP ECD recombinant protein was diluted to 20 nM in the running buffer (PBS, 0.05% Tween-20, 0.5% BSA, pH 7.2) and captured to the SA biosensor until coupling length reached 0.2 nm. Following capture of the LRP5 or LRP6, the SA biosensor with captured biotinylated-LRP5 or biotinylated LRP6 was dipped into wells containing the relevant antibody fragment at […] (0, 1.37, 4.12, 12.4, 37, 111.1, 333.3, 1000 nM) in running buffer, plus a well with only running buffer as a reference channel. KD was determined by global fitting, 1:1 binding model according to manufacturer recommended settings.
(In BLI a coated tip is dipped into the sample, and binding shifts an interference pattern.)
In the case of B1, the binding result is given as “no binding”.
On the same count and under the same terms, next, B2: “no binding”.
The same measure, in the same setting: under B3 stands “no binding”.
Regarding B4, the binding result is “no binding”.
On the same count and under the same terms, under B5 stands “no binding”.
On the same count and under the same terms, under B6 stands “no binding”; under B7, “no binding”.

In another assay the target is T2, LRP6E3E4_O75581_631-1246. Description: Octet BLI. Here is the method: as §1
As for B8, the binding result is “no binding”.
Same read-out and setting: next, B9: “no binding”; B10: “no binding”.
For the molecule B11, the binding result is “no binding”.

A further assay deals with T1, LRP6e1e2. The experiment in a line: Octet BLI or BIAcore SPR.
As to B8, the dissociation constant Kd is less than 500 nM.
Still for that read-out and setting: next, B9: less than 500 nM; B10: less than 500 nM; B11: less than 500 nM.

A further assay concerns the target T2, LRP6E3E4_O75581_631-1246. Description: Octet BLI or BIAcore SPR.
Consider B1, for which the Kd was less than 500 nM.
B2 had an equilibrium dissociation constant (Kd) of less than 500 nM.
On the same count and under the same terms, under B3 stands less than 500 nM.
Still for that read-out and setting: next, B4: less than 500 nM; B5: less than 500 nM; B6: less than 500 nM.
Still for that read-out and setting: under B7 stands less than 500 nM.

Another assay addresses T1, LRP6e1e2. The experiment in a line: Octet BLI, affinity class. Here is the method:
as §1
In the case of B8, the Kd is less than 500 nM.
Same read-out and setting: under B9 stands less than 500 nM; under B10, less than 500 nM; under B11, less than 500 nM.

The next assay has as its target T2, LRP6E3E4_O75581_631-1246. Description: Octet BLI, affinity class. Here is the method:
as §1
The molecule B1 displayed a Kd of less than 500 nM.
Same read-out and setting: next, B2: less than 500 nM.
Same read-out and setting: next, B3: less than 500 nM; B4: less than 500 nM; B5: less than 500 nM.
Same read-out and setting: next, B6: less than 500 nM; B7: less than 500 nM.

For the next assay, the target named is T3, LRP6E3E4_O75581_631-1246. The experiment in a line: co-crystal structure (figure legend). Here is the method: Structure of Lrp6E3E4:VHH/Fab complexes were determined by molecular replacement method using Phaser [Phaser crystallographic software. A. J. McCoy, R. W. Grosse-Kunstleve, P. D. Adams, M. D. Winn, L. C. Storoni, and R. J. Read. J Appl Crystallogr 40, 658-674 (2007)] with published structures Lrp6E3E4 [PDB code: 4AOP; Chen S, Bubeck D, MacDonald B T, Liang W X, Mao J H, Malinauskas T, Llorca O, Aricescu A R, Siebold C, He X, Jones E Y. Dev. Cell 21 848-61 (2011)] and a VHH or sdAb [PDB code: 6B20, chain E; Gulati S, Jin H, Masuho I, Orban T, Cai Y, Pardon E, Martemyanov K A, Kiser P D, Stewart P L, Ford C P, Steyaert J, Palczewski K. Nat Commun 91996 (2018)], followed by refinement and validation by MolProbity as implemented in Phenix [PHENIX: a comprehensive Python-based system for macromolecular structure solution. P. D. Adams, P. V. Afonine, G. Bunkoczi, V. B. Chen, I. W. Davis, N. Echols, J. J. Headd, L. W. Hung, G. J. Kapral, R. W. Grosse-Kunstleve, A. J. McCoy, N. W. Moriarty, R. Oeffner, R. J. Read, D. C. Richardson, J. S. Richardson, T. C. […]
Diffraction quality crystals of Lrp6E3E4:VHH36 (concentration=14.0 mg/mL) were obtained by grid-screen optimization in a condition containing 1.6 M ammonium sulfate and 0.1 M Tris pH 8.2. […] Structure of Lrp6E3E4:VHH36 complex was determined at a resolution of 2.70 Å, and refined to Rcryst and Rfree factors of 18.6% and 22.8%, respectively.
Consider B12, for which the binding result is listed as “binds”.
